Columns and labels:
[1] = biological target: 3-deoxy-D-arabino-heptulosonate 7-phosphate synthase from Aeropyrum pernix (Aeropyrum pernix); test: SEC
[2] = biological target: DAH7PS^Ap (DAHPS^Ap; 3-deoxy-D-arabino-heptulosonate 7-phosphate synthase) (Aeropyrum pernix, UniProt Q9YEJ7); test: initial rates, discontinuous periodate-thiobarbituric acid; type: biochemical; settings: read-out: apparent Km; 3 mM PEP (saturating), pH 7.0, 60 °C; enzyme as isolated (Zn)

Row | Compound | stoichiometry N [1] | Km [2] [µM]
1 | 3-deoxy-D-arabino-heptulosonate 7-phosphate synthase from Aeropyrum pernix (enzyme) | 2 | –
2 | O=C[C@H](O)[C@H](O)COP(=O)(O)O [E4P] | – | 280 ± 20

Reference: article PMC3260417 (Bioorganic Chemistry, 2011)
